These results are taken from article PMC1890003.

pKd: −log10 of the molar value.

This test deals with Δgpαf-BOF (recombinant nonglycosylated pro-α factor derivative labeled with BODIPY FL) (yeast). The test is described as follows: fluorescence polarisation; BOF anisotropy; Δgpαf-BOF (0.2 μM in buffer A: 50 mM HEPES pH 7.5, 40 mM KOAc, 5 mM MgCl2) titrated at 4°C with PDI or BiP; a separate sample for each concentration. (Fluorescence polarisation rises when a labelled molecule tumbles more slowly, as on binding a larger partner.)

In general, pKd refers to −log10 of the Kd, conventionally taken in molar units.

Turning to “reduced protein disulfide isomerase (from UniProt P07237 18-508) (enzyme)”, the pKd is 7.52.

Consider “oxidized protein disulfide isomerase (from UniProt P07237 18-508) (enzyme)”, for which the negative logarithm of the Kd (pKd) is 6.05.
